In paper PMC8063088:

Tests used:
[1] = target: NET1_(ΔNTR) 'Interface-1' mutant (F55R), made with an N-terminal His6-SUMO tag (human) (UniProt O95631); experiment: AUC; sedimentation velocity, 20 °C; binary NEO1_(FN456)-NET1_(ΔNTR) complexes (NET1 wild type at different concentrations, or Interface-1/-2 mutants) mixed equimolar, 10 mM HEPES pH 7.5, 150 mM NaCl, 2 mM CaCl2
[2] = target: NET1_(ΔNTR) 'Interface-2' mutant (Q443N/R445T), made with an N-terminal His6-SUMO tag (human) (UniProt O95631); experiment: as above
[3] = target: NET1_(ΔNTR)^F55R with C-terminal biotinylated Avi-tag (SPR ligand) (human) (UniProt O95631); experiment: SPR; NEO1/DCC:NET1 binding site analysis; biotinylated NET1_(ΔNTR) wild type, Interface-1 and Interface-2 mutants captured at 1007, 1027 and 937 RU; analytes NEO1 and DCC FN456 and FN56, two-fold series from 50 μM; equilibrium, one-site model; 25 °C, 10 mM HEPES pH 7.5, 150 mM NaCl, 0.05% polysorbate-20, 1 mg/ml BSA
[4] = target: NET1_(ΔNTR)^Q443N/R445T with C-terminal biotinylated Avi-tag (SPR ligand) (human) (UniProt O95631); experiment: as above
1D4-tagged NET1_(ΔNTR) = 1D4-tagged NET1_(ΔNTR) (UniProt O95631); experiment: proximity ligation assay (PLA); settings: COS-7 cells co-transfected with NEO1-mVenus and full-length RGMB, incubated with NET1ΔNTR; p = 0.0107; parent: est. 59; read off a plot

| stoichiometry N [1] | stoichiometry N [2] | fold lower affinity than wild-type NET1 (ΔNTR) [3] [fold] | fold reduction of binding against wild-type NET1 (ΔNTR) [4] [fold] | response (No. of PLA foci) (1D4-tagged NET1_(ΔNTR)) | Substance |
| --- | --- | --- | --- | --- | --- |
| 1 NET1:NEO1 | 1 NET1:NEO1 | 10 | 2 | – | NEO1 FN type III domains 4 to 6 (NEO1_(FN456)) (domain or fragment) |
| – | – | – | – | 22 | full-length GPI-anchored RGMB (RGMBFL), N-terminal FLAG (from UniProt Q6NW40) A186R |
